Tests used:
[1] = molecular target: EGFR ectodomain-Fc (human) (Homo sapiens (Human), UniProt P00533 25-645); experiment: filter; DPBS, 5 mM MgCl2, 25 C, 30 min; 0.1 nM RNA; conditions: tags: Fc fusion (R&D Systems); label: 5'-32P
ErbB2 (human) = ErbB2 (human) (Homo sapiens (Human), UniProt P04626 23-652); experiment: filter; 10 nM RNA, 100 nM protein, DPBS 5 mM MgCl2, 25 C; conditions: label: internal alpha-32P

Row | Binder | Kd [1] [nM] | binding result (ErbB2 (human))
1 | E03 (ssRNA, 2'-F pyrimidines) RNA: GGCGCUCCGACCUUAGUCUCUGUGCUAGUAUAUCGCACGGAUUUAAUCGCCGUAGAAAAGCAUGUCAAAGCCGGAACCGUGUAGCACAGCAGA | ~2.45 | no binding
2 | E07 (ssRNA, 2'-F pyrimidines) RNA: GGCGCUCCGACCUUAGUCUCUGUGCCGCUAUAAUGCACGGAUUUAAUCGCCGUAGAAAAGCAUGUCAAAGCCGGAACCGUGUAGCACAGCAGA |  | no binding
